Test results taken from patent publication US20140271478A1 (University of California, published 2014).
Changes are numbered by the printed parent chain.

T1: human integrin β8 swap construct RKMALF (SEQ ID NO:134) (human, UniProt P26012 43-769)
T1 sequence: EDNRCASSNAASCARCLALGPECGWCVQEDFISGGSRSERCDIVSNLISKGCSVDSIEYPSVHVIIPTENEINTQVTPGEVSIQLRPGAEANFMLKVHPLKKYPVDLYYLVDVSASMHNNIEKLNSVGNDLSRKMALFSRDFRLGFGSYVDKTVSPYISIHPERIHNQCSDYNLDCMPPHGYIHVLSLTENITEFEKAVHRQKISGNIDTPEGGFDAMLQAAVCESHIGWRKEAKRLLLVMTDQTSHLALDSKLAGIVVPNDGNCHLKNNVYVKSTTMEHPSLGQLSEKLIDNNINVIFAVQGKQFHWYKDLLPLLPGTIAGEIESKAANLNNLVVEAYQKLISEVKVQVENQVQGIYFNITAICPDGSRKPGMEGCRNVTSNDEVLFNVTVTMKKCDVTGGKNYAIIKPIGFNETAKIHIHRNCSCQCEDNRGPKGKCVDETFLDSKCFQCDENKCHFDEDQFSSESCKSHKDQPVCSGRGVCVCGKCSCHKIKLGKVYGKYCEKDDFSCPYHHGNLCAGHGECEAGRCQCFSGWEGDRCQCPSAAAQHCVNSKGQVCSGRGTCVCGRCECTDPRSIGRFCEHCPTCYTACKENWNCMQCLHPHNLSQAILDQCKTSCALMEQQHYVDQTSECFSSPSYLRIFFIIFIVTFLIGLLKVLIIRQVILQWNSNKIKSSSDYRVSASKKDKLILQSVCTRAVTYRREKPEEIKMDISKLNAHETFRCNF

T2: human integrin β8 swap construct KKMALF (SEQ ID NO:132) (human, UniProt P26012 43-769)
T2 sequence: T1 sequence with R133K

T3: human integrin β8 swap construct KKMAFY (SEQ ID NO:131) (human, UniProt P26012 43-769)
T3 sequence: T1 sequence with R133K, L137F, F138Y

B1: 37E1B5 antibody (antibody, V domains shown)
VH: EVQLVESGGGLVQPGGSLNLSCAVSGFVFSRYWMSWVRQAPGKGLEWIGEINPDSSTINYTSSLKDKFIISRDNAKNTLYLQMNKVRSEDTALYYCACLITTEDYWGQGTSVTVSS
VL: QIVLTQSPSSMYASLGERVTIPCKASQDINSYLSWFQQKPGKSPKTLIYYANRLVDGVPSRFSGSGSGQDYSLTISSLEYEDMGIYYCLQYDEFPYTFGGGTKLEIK
B2: 14E5 antibody (antibody, V domains shown)
VH: EVQLQQSGAELMKPGASVKISCKATGYTFSTYWIEWIKQRPGHGLEWIGHILPGSVITNYNEKFKGKAAITADTSSNTSYMQLSSLTSEDSAVYYCARWGWDSYWGQGTLVTVSS
VL: DIEMTQSPSSLSASLGDRVTISCSTSQDISSSLNWYQQKPDGTVTLLIYYTSNLHSGVPSRFSGSGSGTDYSLTISNLEPEDIATYYCQQYSKLPYTFGGGTKLEIKR
notes: Mouse hybridoma antibody; also called hybridoma clone 14E5
B3: 11E8 antibody (antibody, V domains shown)
VH: EVQLQQSGPELMKTGASVKISCKATGYTFSSYWIEWVKQRPGHGLEWIGDILPGSGTTNYNEKFKGRATVTADRSSNTAYMQLSSLTYGDSAVYYCATWGWDTYWDQGTSVTVSS
VL: B2 VL with E3V, T25A, D28G, S31N, S32Y, T45K, N53S, K93N
notes: Mouse hybridoma antibody

Columns and labels:
Assay in all cases: cell staining of β8 amino acid swap constructs (175-180)
[1] = target: T1, human integrin β8 swap construct RKMALF …
[2] = target: T2, human integrin β8 swap construct KKMALF …
[3] = target: T3, human integrin β8 swap construct KKMAFY …

Binder	% positive [1] [%]	% positive [2] [%]	% positive [3] [%]
B1	131	31	3
B2	150	1	6
B3	125	3	31
